To fix the notation:
B1: CPEB3 Ribozyme (parent)
chain: GGGGGCCACAGCAGAAGCGUUCACGUCGCGGCCCCUGUCAGAUUCUGGUGAAUCUGCGAAUUCUGCUGU

The variants in the data set derive from B1. In words: self-cleavage, relative activity (ratio to wild type); higher = more cleavage; co-transcriptional.
Consider G4U U69A, for which the self-cleavage stood at 0.952. For G4U G5U, the self-cleavage was 0.0723. For G4U U20A, the self-cleavage was 0.121. The figure for G4U U20C is 0.14. For the variant G4U U20G, the self-cleavage was found to be 0.0683. G4U U36C: the self-cleavage stood at 0.651. As to G4U U36G, the self-cleavage was 0.492.

For the variant G4U U36A, the self-cleavage stood at 0.122.

Take G4U G47A: the self-cleavage worked out at 0.804.

As for G4U G47C, the self-cleavage worked out at 0.793. On to G4U G47U, for which the self-cleavage was 0.873. Under G4U C33A stands 1; under G4U C33U, 0.975. As to G4C U20C, the self-cleavage was found to be 0.0911. Take G4C U20G: the self-cleavage came out at 0.072.

For G4U A52C, the self-cleavage came to 0.519. In the case of G4U A52G, the self-cleavage was found to be 0.722.

Turning to G4U A52U, the self-cleavage worked out at 0.677. In the case of G4C U64A, the self-cleavage is 0.457. Consider G4C U64C, for which the self-cleavage turned out to be 0.426. Under G4U U61C stands 0.174; under G4U C57G, 0.165. As to G4U C57U, the self-cleavage was determined as 0.211. The figure for G4U G25U is 0.0695; for G4U G25A it is 0.101. Take G4U G25C: the self-cleavage was found to be 0.116. On to G4U G11C, for which the self-cleavage was determined as 0.228. With G4U G11U, the self-cleavage was found to be 0.492. The figure for G4U G11A is 0.571; for G4U A60U it is 0.219. With G4U A60C, the self-cleavage came out at 0.171.

In the case of G4U C18U, the self-cleavage was 0.257.

For G4U C18G, the self-cleavage worked out at 0.0879. As for G4U A23G, the self-cleavage was determined as 0.502.

Take G4U C22A: the self-cleavage was determined as 0.065.

G4U C22U: the self-cleavage came out at 0.0611. G4U U26G: the self-cleavage was 0.3. Consider G4C U69G, for which the self-cleavage worked out at 0.914. Under G4C U69A stands 0.877; under G4U C54G, 0.21. For the variant G4U C54A, the self-cleavage amounted to 0.289. In the case of G4U C54U, the self-cleavage came to 0.709. With G4U G68U, the self-cleavage worked out at 0.928. Consider G4U G41C, for which the self-cleavage is 0.126.

For G4C U26A, the self-cleavage is 0.125. Take G4C U26G: the self-cleavage amounted to 0.217. Under G5A A15U stands 0.355. On to G5A A15C, for which the self-cleavage worked out at 0.263. Turning to G4U G65A, the self-cleavage came to 0.521. Take G4U G30C: the self-cleavage was found to be 0.108. For the variant G4U G30U, the self-cleavage was 0.103.

Regarding G4U A51C, the self-cleavage was 0.524. With G4U A51U, the self-cleavage is 0.772. As for G4U A51G, the self-cleavage stood at 0.692. As for G4U U67C, the self-cleavage was found to be 0.946. On to G4U U67A, for which the self-cleavage turned out to be 0.9. With G4U C12G, the self-cleavage was found to be 0.182.

As for G4U C12U, the self-cleavage came out at 0.819. Consider G4U C12A, for which the self-cleavage worked out at 0.255. For G4U C66A, the self-cleavage is 0.468. In the case of G4U C66U, the self-cleavage was 0.771.

In the case of G4U A16U, the self-cleavage is 0.235. Regarding G4U U21A, the self-cleavage amounted to 0.654. On to G4U U21C, for which the self-cleavage is 0.4. As to G4C U43A, the self-cleavage is 0.251.

Consider G4C U21A, for which the self-cleavage amounted to 0.427. As for G4C U21C, the self-cleavage was determined as 0.215. With G4C U21G, the self-cleavage amounted to 0.0719. As for G4U U49G, the self-cleavage stood at 0.357.

For G4U A10U, the self-cleavage is 0.983.

G4U G31U: the self-cleavage was 0.126.

Regarding G4U G31C, the self-cleavage came out at 0.0584. As to G4U U43A, the self-cleavage amounted to 0.455.

In the case of G4U U43G, the self-cleavage was 0.389. The figure for G4U U53G is 0.226; for G4U U53C it is 0.323; for G4U U53A it is 0.412.

In the case of G4U G37A, the self-cleavage came to 0.144. Turning to G4U G37C, the self-cleavage came to 0.169. Under G4U U55C stands 0.298. For G4U U55G, the self-cleavage turned out to be 0.203. G4U U55A: the self-cleavage is 0.496. Consider G4U U46C, for which the self-cleavage is 0.751.

In the case of G4U U46A, the self-cleavage was 0.746. In the case of G4U U46G, the self-cleavage was 0.803. For the variant G4U C9A, the self-cleavage turned out to be 0.982. For the variant G4U C9G, the self-cleavage amounted to 0.974.

G4U C24G: the self-cleavage came to 0.0638. With G4U C24A, the self-cleavage was found to be 0.122.

Regarding G4C U38A, the self-cleavage came to 0.639. Regarding G4C U38G, the self-cleavage was determined as 0.152. The figure for G4C U44G is 0.265; for G5A A10G it is 0.915. In the case of G5A A10U, the self-cleavage is 0.953. Turning to G5A A10C, the self-cleavage came out at 0.914.

Consider G4U C45U, for which the self-cleavage turned out to be 0.743. Regarding G4U C45A, the self-cleavage worked out at 0.554. The figure for G4U C45G is 0.587.

Consider G4U G58C, for which the self-cleavage worked out at 0.457. As for G4U G58A, the self-cleavage is 0.377. For the variant G4U G48A, the self-cleavage worked out at 0.856.

For the variant G4U G56C, the self-cleavage was 0.339. As to G4U G56U, the self-cleavage worked out at 0.559. For the variant G4U G14C, the self-cleavage was found to be 0.205.

In the case of G4U G14U, the self-cleavage came to 0.241.

As for G4U U62G, the self-cleavage was 0.349.

As for G4U U62C, the self-cleavage was 0.369. Under G4U C35U stands 0.128; under G4U C35A, 0.114. Under G4U C35G stands 0.101; under G4U U64C, 0.602. Under G4U U64G stands 0.589. Regarding G4U U64A, the self-cleavage was 0.535. Turning to G4U C32A, the self-cleavage was 0.135. The figure for G4U C32U is 0.436; for G4U C32G it is 0.129.

Turning to G4C U67A, the self-cleavage was 0.902.

Turning to G4C U67G, the self-cleavage was determined as 0.848. Take G4C U67C: the self-cleavage was 0.824.

For the variant G4U C29A, the self-cleavage is 0.0776. Regarding G4U A13U, the self-cleavage stood at 0.383. With G4U A13C, the self-cleavage came out at 0.336.

Turning to G4C U46C, the self-cleavage was found to be 0.619.

Regarding G4C U62C, the self-cleavage stood at 0.213. Regarding G4C U62G, the self-cleavage is 0.311. As for G5A A8U, the self-cleavage turned out to be 0.894. G5A A8G: the self-cleavage was 0.725. Consider G5A A8C, for which the self-cleavage amounted to 0.953.

For G4U U38C, the self-cleavage was determined as 0.525. For G4U U38A, the self-cleavage turned out to be 0.73. For the variant G4U G50A, the self-cleavage turned out to be 0.752. Turning to G4U A15U, the self-cleavage was 0.272. On to G4C U61G, for which the self-cleavage is 0.178.

On to G4C U61C, for which the self-cleavage turned out to be 0.169. As for G4C U53A, the self-cleavage turned out to be 0.316.

With G4C U53C, the self-cleavage came out at 0.239. With G4U C6A, the self-cleavage was found to be 0.0552.

In the case of G4U C6G, the self-cleavage amounted to 0.0353. Regarding G5A A13C, the self-cleavage came out at 0.637. As for G4U C7U, the self-cleavage worked out at 0.233. Under G4U A40U stands 0.313.

G4U A40G: the self-cleavage amounted to 0.542. The figure for G4U G19C is 0.0957; for G4U G19A it is 0.0808; for G4U G19U it is 0.112. With G4U C39A, the self-cleavage stood at 0.322. G4C U36G: the self-cleavage worked out at 0.481. For the variant G4C U36C, the self-cleavage turned out to be 0.589. The figure for G4C U36A is 0.0958.

As for G4C U55A, the self-cleavage stood at 0.261. On to G4C U55C, for which the self-cleavage was 0.237. G4U C34A: the self-cleavage turned out to be 0.167.

For the variant G4U C34U, the self-cleavage came to 0.361. Consider G4U C34G, for which the self-cleavage worked out at 0.113. For the variant G4U A8U, the self-cleavage was found to be 0.737.

In the case of G4U U44C, the self-cleavage turned out to be 0.552.

As to G4U U44G, the self-cleavage was 0.384. On to G4U C63G, for which the self-cleavage stood at 0.292. As for G4U A42G, the self-cleavage worked out at 0.655. As to G4U A42U, the self-cleavage worked out at 0.526. With G4U G28C, the self-cleavage was determined as 0.0704. Regarding G4U G17A, the self-cleavage stood at 0.114. With G5A A16G, the self-cleavage was determined as 0.811. On to G4U C27A, for which the self-cleavage was determined as 0.11.

Consider G4U C27U, for which the self-cleavage turned out to be 0.114. On to G4U A59C, for which the self-cleavage was found to be 0.146. On to G4U A59U, for which the self-cleavage came out at 0.193.

These data come from the RNAGym collection of RNA variant scans (doi:10.7554/elife.80360).
